29 sequences from the supplement of paper PMC10567573 can be followed below.

The data set can be described thus: protein stability index of a GFP-peptide fusion (GPS, HEK-293T) (PSI 1-6); higher = more stable. The settings on record: c terminus: a fixed tail appended.

± gives the standard deviation.
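Also: 24-mer peptide tiles fused after GFP, lentivirally expressed, FACS-sorted into six equal bins by GFP/DsRed ratio, decoded by Illumina sequencing, PSI is the read-weighted mean bin number.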

NGERESGLRSLRLFQKLEENGDLY [WDR41]: the protein stability index amounted to 3.29 ± 0.12 (treatment: DMSO) and 3.52 ± 0.23 (treatment: MLN4924 1 uM, 8 h).

Regarding GAVVLGAESHASKDVAIDMMDSRT [STX5], the protein stability index amounted to 4.67 ± 0.2 (treatment: DMSO) and 4.64 ± 0.44 (treatment: MLN4924 1 uM, 8 h).

Take AFQITGVWDASRAPRGTPDPGLGE [PLEKHN1]: the protein stability index (treatment: DMSO) amounted to 3.85 ± 0.31 and the protein stability index (treatment: MLN4924 1 uM, 8 h) amounted to 3.78 ± 0.21.

For NFVHRFPFVAVSIGFAVNKKIEFG [IMPA1], the protein stability index was found to be 2.91 ± 0.76 (treatment: DMSO) and 2.77 ± 0.61 (treatment: MLN4924 1 uM, 8 h).

On to RLFEDVRSWMFRRGPLNSDRSDYF [TRIM43], for which the protein stability index reads like this: (treatment: DMSO) 2.54 ± 0.42; (treatment: MLN4924 1 uM, 8 h) 2.63 ± 0.13.

Take FLNFNGMKLFLDCLKEFPEKQELH [ZER1]: the protein stability index worked out at 2.29 ± 0.18 (treatment: DMSO) and 2.42 ± 0.18 (treatment: MLN4924 1 uM, 8 h).

Consider VNHYSEVADGLCCVLTTPCLTQST [SLA], for which the protein stability index runs as follows: (treatment: DMSO) 2.77 ± 0.27; (treatment: MLN4924 1 uM, 8 h) 2.53 ± 0.38.

With TGLVYDQNMMNHCNLWDSHHPEVP [HDAC6], the protein stability index by setting is: (treatment: DMSO) 3.08 ± 0.29; (treatment: MLN4924 1 uM, 8 h) 3.25 ± 0.18.

For the sequence FTYDPWIGKLLYLEDFFVMSDYRG [SAT1], the protein stability index by setting is: (treatment: DMSO) 2.88 ± 0.51; (treatment: MLN4924 1 uM, 8 h) 2.79 ± 0.76.

As to GGMNHSAFPQTPFKTGNSTATCTT [KCNA3], the protein stability index is 4.27 ± 0.24 (treatment: DMSO) and 4.4 ± 0.4 (treatment: MLN4924 1 uM, 8 h).

With QSEERKRIDELIESGKEEGMKIDL [KMT5A], the protein stability index runs as follows: (treatment: DMSO) 5.583 ± 0.004; (treatment: MLN4924 1 uM, 8 h) 5.5 ± 0.13.

Take KFCMNGAALCALGKDCFLELAPDF [ETS1]: the protein stability index was 2.18 ± 0.33 (treatment: DMSO) and 2.01 ± 0.16 (treatment: MLN4924 1 uM, 8 h).

As to PTPIFAGGANDRWVRSVSFSHDGL [WSB1], the protein stability index runs as follows: (treatment: DMSO) 2.61 ± 0.19; (treatment: MLN4924 1 uM, 8 h) 2.99 ± 0.64.

For the sequence SSSSFDPSVFDGLGDLLMPTMAPA [SNAP91], the protein stability index reads like this: (treatment: DMSO) 3.55 ± 0.25; (treatment: MLN4924 1 uM, 8 h) 3.72 ± 0.33.

For the sequence VILISRISSVGGEAMFCDFPKINH [CFHR2], the protein stability index by setting is: (treatment: DMSO) 3.66 ± 1.3; (treatment: MLN4924 1 uM, 8 h) 2.97 ± 0.21.

ELKPEDKDPRDPEESKEPKEEKQR [GNAS] registered a protein stability index (treatment: DMSO) of 5.22 ± 0.48 and a protein stability index (treatment: MLN4924 1 uM, 8 h) of 5.7 ± 0.3.

For the sequence ATGDYLFEPHSGEDYSRDEDHIAH [SRPK2], the protein stability index is, setting by setting: (treatment: DMSO) 5.23 ± 0.2; (treatment: MLN4924 1 uM, 8 h) 5.28 ± 0.27.

As to IRVLLAFIVLFLLWPFAWLQVAGL [LPCAT4], the protein stability index is, setting by setting: (treatment: DMSO) 2.6 ± 0.69; (treatment: MLN4924 1 uM, 8 h) 3.14 ± 0.44.

Regarding LGACVAPGGNLIVELARYLVDVRQ [DNAAF3], the protein stability index was 2.57 ± 0.44 (treatment: DMSO) and 2.12 ± 0.2 (treatment: MLN4924 1 uM, 8 h).

For LLKAGAEVNVLNDMRDTPLHRAAF [OSBPL1A], the protein stability index came out at 3.12 ± 0.24 (treatment: DMSO) and 3 ± 0.17 (treatment: MLN4924 1 uM, 8 h).

On to RGEVPWSPELGRPHDRSQGDWAPP [ZNF263], for which the protein stability index reads like this: (treatment: DMSO) 4 ± 0.19; (treatment: MLN4924 1 uM, 8 h) 4.12 ± 0.35.

GWCSGDAISSVERYDPQTNEWRMV [KLHL20]: the protein stability index is 2.84 ± 0.24 (treatment: DMSO) and 2.95 ± 0.34 (treatment: MLN4924 1 uM, 8 h).

With AEAKRDAGIREAKAKQEKVSAQYL [FLOT1], the protein stability index is 4.88 ± 0.32 (treatment: DMSO) and 5.094 ± 0.024 (treatment: MLN4924 1 uM, 8 h).

As for CVPVFANMSREPFSTRALVLSILH [SOAT2], the protein stability index reads like this: (treatment: DMSO) 2.22 ± 0.21; (treatment: MLN4924 1 uM, 8 h) 2 ± 0.22.

Sequence TDAFLDRPPTPLFIPAKTGKDVAT [RSPH3] registered a protein stability index (treatment: DMSO) of 4.58 ± 0.18 and a protein stability index (treatment: MLN4924 1 uM, 8 h) of 4.6 ± 0.22.

On to AKVDSSGVIDLFGDAFGSSASEPQ [SNAP91], for which the protein stability index was 4.47 ± 0.23 (treatment: DMSO) and 4.57 ± 0.19 (treatment: MLN4924 1 uM, 8 h).

Turning to APAVEVAPAGASYNPSFEDHQTLL [NOP53], the protein stability index (treatment: DMSO) worked out at 4.84 ± 0.12 and the protein stability index (treatment: MLN4924 1 uM, 8 h) is 5.14 ± 0.25.

With GTVVALLNVHDLDSEQNGQVTCSI [PCDHGA10], the protein stability index is, setting by setting: (treatment: DMSO) 2.23 ± 0.34; (treatment: MLN4924 1 uM, 8 h) 2.58 ± 0.24.

On to GCDRIIGSKKKFDKCMVCGGDGSG [ADAMTS4], for which the protein stability index (treatment: DMSO) came to 3.21 ± 0.34 and the protein stability index (treatment: MLN4924 1 uM, 8 h) is 4.053 ± 0.022.
